In patent publication US20250002610A1 (Genmab, published 2025):

Molecular target: T1, human FAPα (Fibroblast activation protein alpha), cell surface expressed (human, UniProt Q12884 1-760)
T1 construct: Endogenous on human lung fibroblasts and CAFs
T1 sequence: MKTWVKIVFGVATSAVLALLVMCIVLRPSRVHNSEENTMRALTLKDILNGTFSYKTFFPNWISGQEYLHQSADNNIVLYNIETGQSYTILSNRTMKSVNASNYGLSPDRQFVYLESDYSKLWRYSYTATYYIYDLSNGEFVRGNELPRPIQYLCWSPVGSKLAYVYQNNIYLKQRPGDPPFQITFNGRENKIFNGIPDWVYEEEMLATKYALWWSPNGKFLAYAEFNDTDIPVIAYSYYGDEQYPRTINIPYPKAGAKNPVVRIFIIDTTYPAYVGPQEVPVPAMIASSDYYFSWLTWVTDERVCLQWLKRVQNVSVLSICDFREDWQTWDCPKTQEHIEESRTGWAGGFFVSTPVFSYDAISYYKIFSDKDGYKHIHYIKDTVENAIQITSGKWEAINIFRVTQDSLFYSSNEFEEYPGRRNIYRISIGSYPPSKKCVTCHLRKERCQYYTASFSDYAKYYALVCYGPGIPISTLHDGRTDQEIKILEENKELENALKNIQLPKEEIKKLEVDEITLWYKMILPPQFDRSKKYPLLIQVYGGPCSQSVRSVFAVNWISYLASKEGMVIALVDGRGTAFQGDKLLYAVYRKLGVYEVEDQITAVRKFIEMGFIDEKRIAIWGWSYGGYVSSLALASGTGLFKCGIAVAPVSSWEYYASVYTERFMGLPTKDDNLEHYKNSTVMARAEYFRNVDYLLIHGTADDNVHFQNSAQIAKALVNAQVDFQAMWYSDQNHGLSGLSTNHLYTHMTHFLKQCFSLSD
Assay: flow cytometry, CAFs, n = 3
Description: Binding of bispecific or monoclonal antibodies carrying the anti-FAPα arm derived from IgG1-FAPα-FERL (BisG1-FAPα-FERL/DR4-FERR, BisG1-FAPα-FERL/b12-FERR, and IgG1-FAPα-FERL) to cell surface expressed human FAPα was analyzed by flow cytometry using human lung fibroblasts and CAFs, which endogenously express FAPα. BisG1-b12-FERL/b12-FERR was used as negative control.
Human lung fibroblasts and CAFs (50,000 cells/well) were seeded in 96-Well round bottom plates (Greiner Bio-one, Cat #650101). Antibody dilutions were prepared using fluorescence-activated cell sorting (FACS) buffer, consisting of phosphate buffer saline (PBS, Lonza, Cat #BE17-517Q)+1% Bovine Serum Albumin (BSA, Roche, Cat #10735086001)+0.02% Sodium Azide (Bio-World, Cat #41920044-3). Plates were centrifuged, supernatant was removed, cells were resuspended in 50 μL of human Fc Block (BD, Cat #564220, diluted 1:100 in FACS buffer) and 50 μL of viability stain TO-PRO-3 Iodide (Thermo Fisher, Cat #T3605, diluted 1: 25,000 in FACS buffer), and incubated for 15 min at 4° C. Plates were washed three times with FACS buffer. […] Antibody binding to viable cells (TO-PRO-3 negative) was analyzed by flow cytometry on a FACSCelesta™ (BD biosciences) and data were processed using FlowJo_v10.8.1 (FlowJo LLC). Geomean fluorescence intensity, gMFI, was determined and visualized using GraphPad Prism.

B1: BisG1-FAPα-FERL/DR4-FERR (bispecific antibody, human IgG1, kappa, lambda)
heavy 1: EVQLLESGGGLVQPGGSPRLSCEASGFTFSSYALSWVRQAPGKGLEWVSAISGSGGGRYYADSVKGRFTISRDNSKNTLFLQMNSLRAEDTAVYYCAKEGYSSSGTYWDHWGQGTLVTVSSASTKGPSVFPLAPSSKSTSGGTAALGCLVKDYFPEPVTVSWNSGALTSGVHTFPAVLQSSGLYSLSSVVTVPSSSLGTQTYICNVNHKPSNTKVDKRVEPKSCDKTHTCPPCPAPEFERGPSVFLFPPKPKDTLMISRTPEVTCVVVDVSHEDPEVKFNWYVDGVEVHNAKTKPREEQYNSTYRVVSVLTVLHQDWLNGKEYKCKVSNKALPAPIEKTISKAKGQPREPQVYTLPPSREEMTKNQVSLTCLVKGFYPSDIAVEWESNGQPENNYKTTPPVLDSDGSFLLYSKLTVDKSRWQQGNVFSCSVMHEALHNHYTQKSLSLSPG
light 1: AIQMTQSPSSVSASVGDRVTITCRASQGVSSWLAWYQQKPGRAPKLLIYVASTLQSGVPSRFSGSGSGTDFTLTINSLQPEDFATYYCQQANSFPPTFGQGTRLEMKRTVAAPSVFIFPPSDEQLKSGTASVVCLLNNFYPREAKVQWKVDNALQSGNSQESVTEQDSKDSTYSLSSTLTLSKADYEKHKVYACEVTHQGLSSPVTKSFNRGEC
heavy 2: QVQLQESGPGLVKPSGTLSLTCAVSGGSISSYSWWSWIRQPPGKGLEWIGELYHSGSTNYNPSLKSRVTISVDKSKNQFSLKLRSVTAADTAVYYCVRGVATIDYWGQGTLVTVSSASTKGPSVFPLAPSSKSTSGGTAALGCLVKDYFPEPVTVSWNSGALTSGVHTFPAVLQSSGLYSLSSVVTVPSSSLGTQTYICNVNHKPSNTKVDKRVEPKSCDKTHTCPPCPAPEFERGPSVFLFPPKPKDTLMISRTPEVTCVVVDVSHEDPEVKFNWYVDGVEVHNAKTKPREEQYNSTYRVVSVLTVLHQDWLNGKEYKCKVSNKALPAPIEKTISKAKGQPREPQVYTLPPSREEMTKNQVSLTCLVKGFYPSDIAVEWESNGQPENNYKTTPPVLDSDGSFFLYSRLTVDKSRWQQGNVFSCSVMHEALHNHYTQKSLSLSPG
light 2: QSALTQPPSASGSPGQSVTISCTGTSSDVGGYNFVSWYQQDPGKAPKLLIYEVTKRPSGVPDRFSGSKSGNTASLTVSGLQAEDEADYYCSSYAGSNNVMFGGGTKLTVLGQPKAAPSVTLFPPSSEELQANKATLVCLISDFYPGAVTVAWKADSSPVKAGVETTTPSKQSNNKYAASSYLSLTPEQWKSHRSYSCQVTHEGSTVEKTVAPTECS
notes: Human IgG1 bispecific made by controlled Fab-arm exchange of IgG1-FAPα-FERL and IgG1-DR4-FERR; monovalent for FAPα and for DR4; also called GEN1057
In the case of B1, the EC50 is reported as 0.211 mg/L.

B2: BisG1-FAPα-FERL/b12-FERR (bispecific antibody, human IgG1, kappa)
heavy 1: B1 heavy 1
light 1: B1 light 1
heavy 2: QVQLVQSGAEVKKPGASVKVSCQASGYRFSNFVIHWVRQAPGQRFEWMGWINPYNGNKEFSAKFQDRVTFTADTSANTAYMELRSLRSADTAVYYCARVGPYSWDDSPQDNYYMDVWGKGTTVIVSSASTKGPSVFPLAPSSKSTSGGTAALGCLVKDYFPEPVTVSWNSGALTSGVHTFPAVLQSSGLYSLSSVVTVPSSSLGTQTYICNVNHKPSNTKVDKRVEPKSCDKTHTCPPCPAPEFERGPSVFLFPPKPKDTLMISRTPEVTCVVVDVSHEDPEVKFNWYVDGVEVHNAKTKPREEQYNSTYRVVSVLTVLHQDWLNGKEYKCKVSNKALPAPIEKTISKAKGQPREPQVYTLPPSREEMTKNQVSLTCLVKGFYPSDIAVEWESNGQPENNYKTTPPVLDSDGSFFLYSRLTVDKSRWQQGNVFSCSVMHEALHNHYTQKSLSLSPG
light 2: EIVLTQSPGTLSLSPGERATFSCRSSHSIRSRRVAWYQHKPGQAPRLVIHGVSNRASGISDRFSGSGSGTDFTLTITRVEPEDFALYYCQVYGASSYTFGQGTKLERKRTVAAPSVFIFPPSDEQLKSGTASVVCLLNNFYPREAKVQWKVDNALQSGNSQESVTEQDSKDSTYSLSSTLTLSKADYEKHKVYACEVTHQGLSSPVTKSFNRGEC
With B2 the EC50 was 0.218 mg/L.
